Numbering of substitutions follows the chain as printed.
What was measured:
[1] = target: T1, human Tie1-Fc fusion protein (Homo sapiens, UniProt P35590); assay: BIAcore 3000 affinity analysis of Fab and IgG; format: binding
T1 construct: selected against the Tie1 extracellular domain fused to human Fc or to a histidine purification tag
T1 sequence (P35590 22-759 limits assumed): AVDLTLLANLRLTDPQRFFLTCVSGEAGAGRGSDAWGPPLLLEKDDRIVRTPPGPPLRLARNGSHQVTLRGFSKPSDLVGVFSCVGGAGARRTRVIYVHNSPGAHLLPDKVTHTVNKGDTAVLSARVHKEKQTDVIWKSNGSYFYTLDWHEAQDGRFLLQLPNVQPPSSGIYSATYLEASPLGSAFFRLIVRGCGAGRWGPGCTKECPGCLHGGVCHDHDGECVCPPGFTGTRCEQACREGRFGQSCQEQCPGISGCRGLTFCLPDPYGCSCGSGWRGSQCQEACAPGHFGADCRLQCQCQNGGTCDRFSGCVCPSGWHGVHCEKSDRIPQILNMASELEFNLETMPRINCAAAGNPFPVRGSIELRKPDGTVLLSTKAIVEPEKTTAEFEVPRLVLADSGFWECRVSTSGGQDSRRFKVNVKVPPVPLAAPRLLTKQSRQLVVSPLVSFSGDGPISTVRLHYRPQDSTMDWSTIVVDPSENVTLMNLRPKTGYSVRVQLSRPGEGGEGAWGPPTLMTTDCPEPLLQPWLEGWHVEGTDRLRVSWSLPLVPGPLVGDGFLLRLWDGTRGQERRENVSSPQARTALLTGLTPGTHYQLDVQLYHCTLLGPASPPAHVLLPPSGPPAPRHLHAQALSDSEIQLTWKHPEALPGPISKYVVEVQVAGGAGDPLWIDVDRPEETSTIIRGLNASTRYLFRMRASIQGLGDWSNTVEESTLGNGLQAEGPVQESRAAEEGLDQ
Procedure: Affinity analysis of the Fab and IgGs was performed using surface plasmon resonance using a BIAcore 3000 instrument. For this analysis both dimeric (Tie1-Fc fusion protein) and monomeric (Tie1-HIS) versions of the extracellular domain of the Tie1 were used. The sensor chips used in these experiments were CM5 (dextran-coated) which allow immobilization of proteins to the chip via standard amine coupling chemistries. The concentration of flowed antibody was determined using a surface plasmon resonance based method. Using a high-density protein A sensor chip, under mass transport limited conditions, the response signal is dependent only on the concentration of the antibody in the sample under test. This approach allows a precise determination of the antibody concentration, a parameter important for accurate determination of the KD.
470 RUs of Tie1 HIS protein were coated on a CM5 sensor chip and 5, 20, 100, and 500 nM of the Fab flowed over the chip at four different flow rates ([…]), rates in which the system is not mass transport limited. Kinetic data was typically determined using a range of analyte concentrations and three different chip coating densities. The data from the lowest coating density that gave a good signal was typically chosen, this was often in a range from 50-100 RUs. Using such low coating densities allowed the sensor curves to be fit using BIAEVALUATION™ 3.0 software to a 1:1 model, often even when using a bivalent analyte (IgG or Tie1-Fc fusion protein). For bivalent analytes, when fit to a 1:1 model was not possible, the curves were fit using a 2:1 model.
The anti-Tie1 antibodies described here bind to both human and mouse Tie1 molecules. The binding of the anti-Tie1 Fab to mouse Tie1-Fc fusion protein was compared with the binding of the anti-Tie1 Fab to human Tie1-Fc fusion protein. In both of these experiments the Tie1-Fc fusion protein was immobilized on the sensor chip and the anti Tie-1 Fab served as the analyte. Under these experimental conditions the anti-Tie1 Fab has very similar KD (˜3 nM) values for both the human and mouse Tie1-Fc fusion proteins (Table 9). Under conditions that are likely to mimic those used in the animal efficacy experiments, i.e. Tie1-Fc immobilized to the CM5 sensor chip and anti-Tie1 used as the analyte, the measured KD was 0.2 nM.

mouse Tie1 Fc = target: T2, mouse Tie1 Fc (Mus musculus, UniProt Q06806); assay: BIAcore, Fab over biotinylated mouse Tie1-Fc on streptavidin chip; format: binding; conditions: Fab analyte; for kon: 740 RU
T2 construct: both dimeric (Tie1-Fc fusion protein) and monomeric (Tie1-HIS) versions of the extracellular domain of the Tie1 were used
T2 sequence (Q06806 23-755 limits assumed): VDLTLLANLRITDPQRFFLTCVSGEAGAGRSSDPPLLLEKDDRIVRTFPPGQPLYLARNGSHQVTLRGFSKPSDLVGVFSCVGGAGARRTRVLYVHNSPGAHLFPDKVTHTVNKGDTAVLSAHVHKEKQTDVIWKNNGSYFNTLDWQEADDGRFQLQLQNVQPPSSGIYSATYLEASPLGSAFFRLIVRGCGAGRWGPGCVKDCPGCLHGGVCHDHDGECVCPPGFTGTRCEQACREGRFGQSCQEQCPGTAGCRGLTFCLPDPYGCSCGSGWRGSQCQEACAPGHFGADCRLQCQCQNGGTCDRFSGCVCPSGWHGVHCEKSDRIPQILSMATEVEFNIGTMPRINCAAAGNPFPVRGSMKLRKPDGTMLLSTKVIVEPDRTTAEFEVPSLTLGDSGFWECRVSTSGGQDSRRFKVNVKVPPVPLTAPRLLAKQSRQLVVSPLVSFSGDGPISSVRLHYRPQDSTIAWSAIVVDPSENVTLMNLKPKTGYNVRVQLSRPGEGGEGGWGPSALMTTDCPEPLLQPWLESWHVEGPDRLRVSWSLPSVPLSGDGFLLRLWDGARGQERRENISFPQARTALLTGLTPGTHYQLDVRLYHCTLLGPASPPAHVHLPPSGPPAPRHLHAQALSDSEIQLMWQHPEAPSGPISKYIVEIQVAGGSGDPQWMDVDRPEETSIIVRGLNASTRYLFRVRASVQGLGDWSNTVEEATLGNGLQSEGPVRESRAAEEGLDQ
Procedure: Mouse Tie 1-Fc antigen (0.5 mg/ml stock) was biotinylated using established procedures and after dilution 1/100 fold in HBS this was then used for capturing to a streptavidin chip. This was coated to a resonance value of 740RU. All analysis was performed in HBS buffer. The parental Fab E3 0.587 mg/ml (11740 nM) was diluted 1/587 in HBS+BSA to obtain a stock of 20 nM and the germlined Fab E3 0.025 mg/ml (500 nM) was diluted 1/25 in HBS+BSA to obtain a stock of 20 nM. Serial dilutions were made of each Fab preparation to obtain 10 nM, 5 nM, 2.5 nM, and 1.25 nM. For the association phase samples were injected at 30 μl/min for 4 minutes using kinject program. This was followed by a 10 minutes dissociation phase, any remaining sample was stripped from the Tie1 Fc surface at a flow of 50 μl/min with a single injection of 50 mM NaOH+1 M NaCl for 18 seconds. All samples were run and analyzed in duplicate.
Sensorgrams were analyzed using the simultaneous ka/kd fitting program with 1:1 model in the BIAEVALUATION™ software 3.1.

B1: E3: human anti-Tie1 antibody from phage Fab library, reformatted as IgG; HC variable SEQ ID NO:114, LC variable SEQ ID NO:116 (antibody, V domains shown)
VH: EVQLLESGGGLVQPGGSLRLSCAASGFTFSMYGMVWVRQAPGKGLEWVSVISPSGGNTGYADSVKGRFTISRDNSKNTLYLQVNSLRAEDTAVYYCARAPRGYSYGYYYWGQGTLVTVSSASTKGPSVFPLAPSSKSTSGG
VL: DIQMTQSPLSLSASVGDRVTITCRASQGIGHYLAWYQQKPGKVPKLLIYTASTLQSGVPSRFSGSGSGTDFTLTINSLQPEDVATYYCQQFNSYPHTFGQGTRLDIK
modifications: IgG constant regions; Synthetically generated peptide
Kon [1]: 6190 M⁻¹ s⁻¹ | koff [1]: 3.61e-05 s⁻¹

B2: parental E3 Fab: soluble Fab fragment of the parental E3 anti-Tie1 antibody (antibody, V domains shown)
VH: B1 VH
VL: B1 VL
koff (mouse Tie1 Fc): 0.00095 s⁻¹ | kon (mouse Tie1 Fc): 246000 M⁻¹ s⁻¹ | Kon [1]: 8260 M⁻¹ s⁻¹ | koff [1]: 4.47e-05 s⁻¹

B3: germlined E3 Fab: soluble Fab of E3 with LC framework regions germlined to DPK4; LC variable SEQ ID NO:159 (antibody, V domains shown)
VH: B1 VH
VL: B1 VL with L9S, N76S, D105E
koff (mouse Tie1 Fc): 0.00104 s⁻¹ | kon (mouse Tie1 Fc): 340000 M⁻¹ s⁻¹

Source: patent publication US20100196361A1, “Method of inhibition of vascular development using an antibody” (DYAX CORP., priority 2003, published 2010)
